The supplement of paper PMC9112550, “Optimization of the antimicrobial peptide Bac7 by deep mutational scanning” (BMC Biology, 2022)

Test system: Escherichia coli TOP10
Assay: shrunken log2 fold change of peptide-encoding DNA abundance (4.5 h post-induction vs induction); higher = less antimicrobial activity (less host growth inhibition)
Details: time post-induction: 4.5 h; library: site-saturation at positions 5, 18, 19, 20
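Also: peptides expressed intracellularly from a pBAD plasmid library in pooled LB shake-flask culture, induced with 0.3% L-arabinose, DNA abundance read by NGS, three biological replicates, DESeq2 with apeglm shrinkage.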

Sequence	shrunken log2 fold change
RRIRHRPPRLPRPRPRPQCKPRP	-0.161
RRIRFRPPRLPRPRPRPEMMPRP	0.00382
RRIRTRPPRLPRPRPRPWRPPRP	0.00182
RRIRERPPRLPRPRPRPTATPRP	0.259
RRIRYRPPRLPRPRPRPTIMPRP	-1.29
RRIRYRPPRLPRPRPRPFAEPRP	-0.509
RRIRQRPPRLPRPRPRPYCVPRP	-0.00867
RRIRCRPPRLPRPRPRPYAFPRP	-0.425
RRIRMRPPRLPRPRPRPRQMPRP	0.862
RRIRCRPPRLPRPRPRPANWPRP	0.938
RRIRHRPPRLPRPRPRPATIPRP	-0.281
RRIRMRPPRLPRPRPRPQVAPRP	0.0435
RRIRARPPRLPRPRPRPPILPRP	-0.261
RRIRQRPPRLPRPRPRPHLNPRP	-0.29
RRIRARPPRLPRPRPRPGEYPRP	0.0829
RRIRDRPPRLPRPRPRPKFQPRP	0.00463
RRIRERPPRLPRPRPRPSSRPRP	-0.107
RRIRCRPPRLPRPRPRPQMDPRP	-0.248
RRIRERPPRLPRPRPRPCREPRP	-0.129
RRIRTRPPRLPRPRPRPWYTPRP	-0.555
RRIRHRPPRLPRPRPRPVEKPRP	-0.0342
RRIRERPPRLPRPRPRPPQKPRP	-0.0624
RRIRWRPPRLPRPRPRPWPTPRP	0.336
RRIRRRPPRLPRPRPRPNKIPRP	0.755
RRIRMRPPRLPRPRPRPLGVPRP	0.8

Sequence	shrunken log2 fold change
RRIRNRPPRLPRPRPRPFDTPRP	0.0291
RRIRQRPPRLPRPRPRPRDKPRP	0.00325
RRIRMRPPRLPRPRPRPSLIPRP	-0.245
RRIRIRPPRLPRPRPRPFTTPRP	-0.509
RRIRGRPPRLPRPRPRPFCIPRP	0.494
RRIRARPPRLPRPRPRPISVPRP	-0.173
RRIRKRPPRLPRPRPRPTSRPRP	0.159
RRIRWRPPRLPRPRPRPGNLPRP	-0.00261
RRIRCRPPRLPRPRPRPSKSPRP	-0.0548
RRIRFRPPRLPRPRPRPKSRPRP	-0.0938
RRIRFRPPRLPRPRPRPTHQPRP	2.65
RRIRLRPPRLPRPRPRPGTQPRP	-0.0907
RRIRKRPPRLPRPRPRPKMVPRP	-0.031
RRIRGRPPRLPRPRPRPPLFPRP	0.974
RRIRWRPPRLPRPRPRPDLRPRP	-0.00728
RRIRARPPRLPRPRPRPCMKPRP	-0.167
RRIRTRPPRLPRPRPRPKWVPRP	0.129
RRIRVRPPRLPRPRPRPNAFPRP	-0.0289
RRIRTRPPRLPRPRPRPRETPRP	0.511
RRIRHRPPRLPRPRPRPYPYPRP	-0.43
RRIRGRPPRLPRPRPRPHVAPRP	0.724
RRIRSRPPRLPRPRPRPRKRPRP	0.213
RRIRHRPPRLPRPRPRPRAIPRP	0.0852
RRIRNRPPRLPRPRPRPMGNPRP	-0.0658
RRIRARPPRLPRPRPRPTFMPRP	0.106

Sequence	shrunken log2 fold change
RRIRTRPPRLPRPRPRPPRWPRP	0.689
RRIRYRPPRLPRPRPRPRLGPRP	0.0954
RRIRFRPPRLPRPRPRPGMWPRP	0.231
RRIRWRPPRLPRPRPRPDRNPRP	0.0394
RRIRERPPRLPRPRPRPFMTPRP	-0.438
RRIRRRPPRLPRPRPRPSYSPRP	-0.319
RRIRPRPPRLPRPRPRPHWHPRP	-0.124
RRIRVRPPRLPRPRPRPNWIPRP	-0.29
RRIRCRPPRLPRPRPRPHTDPRP	-0.246
RRIRHRPPRLPRPRPRPLMPPRP	-0.107
RRIRLRPPRLPRPRPRPCRRPRP	-0.0846
RRIRDRPPRLPRPRPRPAQQPRP	-0.0267
RRIRNRPPRLPRPRPRPMHWPRP	0.0477
RRIRTRPPRLPRPRPRPQDIPRP	-0.0501
RRIRFRPPRLPRPRPRPCCLPRP	-0.725
RRIRDRPPRLPRPRPRPMVYPRP	0.225
RRIRYRPPRLPRPRPRPIEKPRP	-0.203
RRIRMRPPRLPRPRPRPNTIPRP	-0.3
RRIRWRPPRLPRPRPRPSKDPRP	-0.412
RRIRARPPRLPRPRPRPIHGPRP	-0.208
RRIRIRPPRLPRPRPRPMIGPRP	-0.477
RRIRNRPPRLPRPRPRPLLNPRP	-0.443
RRIRRRPPRLPRPRPRPDPPPRP	0.443
RRIRWRPPRLPRPRPRPVTQPRP	-0.0775
RRIRERPPRLPRPRPRPYGNPRP	-0.0871

Sequence	shrunken log2 fold change
RRIRKRPPRLPRPRPRPWDFPRP	0.953
RRIRFRPPRLPRPRPRPKHVPRP	-0.0891
RRIRSRPPRLPRPRPRPLRNPRP	1.38
RRIRMRPPRLPRPRPRPANCPRP	-0.242
RRIRERPPRLPRPRPRPLVRPRP	-0.192
RRIRPRPPRLPRPRPRPREEPRP	0.111
RRIRARPPRLPRPRPRPKWPPRP	0.751
RRIRIRPPRLPRPRPRPKDAPRP	0.176
RRIRWRPPRLPRPRPRPWCQPRP	0.121
RRIRWRPPRLPRPRPRPVVVPRP	0.281
RRIRCRPPRLPRPRPRPHVHPRP	-0.245
RRIRERPPRLPRPRPRPAICPRP	-0.141
RRIRSRPPRLPRPRPRPSEDPRP	-0.325
RRIRIRPPRLPRPRPRPKLMPRP	-0.171
RRIRIRPPRLPRPRPRPHNHPRP	-0.93
RRIRSRPPRLPRPRPRPRHMPRP	-0.0166
RRIRIRPPRLPRPRPRPAANPRP	0.0204
RRIRDRPPRLPRPRPRPYTNPRP	-0.647
RRIRIRPPRLPRPRPRPCNFPRP	-0.061
RRIRDRPPRLPRPRPRPIQCPRP	0.0299
RRIRNRPPRLPRPRPRPQVLPRP	-0.0163
RRIRMRPPRLPRPRPRPYPSPRP	-0.0577
RRIRNRPPRLPRPRPRPAVHPRP	-0.0211
RRIRRRPPRLPRPRPRPHIVPRP	-0.0515
RRIRKRPPRLPRPRPRPDREPRP	0.186

Sequence	shrunken log2 fold change
RRIRGRPPRLPRPRPRPTSLPRP	0.542
RRIRKRPPRLPRPRPRPTAGPRP	0.581
RRIRWRPPRLPRPRPRPACPPRP	0.105
RRIRDRPPRLPRPRPRPGCGPRP	0.92
RRIRPRPPRLPRPRPRPMVVPRP	-0.153
RRIRWRPPRLPRPRPRPMRCPRP	0.353
RRIRKRPPRLPRPRPRPEEDPRP	0.0229
RRIRARPPRLPRPRPRPECKPRP	0.769
RRIRLRPPRLPRPRPRPECYPRP	-0.235
RRIRGRPPRLPRPRPRPKLFPRP	0.75
RRIRCRPPRLPRPRPRPYSSPRP	0.00688
RRIRCRPPRLPRPRPRPIVAPRP	0.0801
RRIRCRPPRLPRPRPRPPKIPRP	0.277
RRIRVRPPRLPRPRPRPSMGPRP	-0.399
RRIRPRPPRLPRPRPRPPSQPRP	0.334
RRIRDRPPRLPRPRPRPAFYPRP	-0.305
RRIRFRPPRLPRPRPRPWAVPRP	-0.0667
RRIRQRPPRLPRPRPRPTRDPRP	-0.271
RRIRLRPPRLPRPRPRPAENPRP	0.0583
RRIRDRPPRLPRPRPRPKRIPRP	0.133
RRIRTRPPRLPRPRPRPRLTPRP	-0.00933
RRIRCRPPRLPRPRPRPVKSPRP	0.967
RRIRNRPPRLPRPRPRPGMPPRP	-0.107
RRIRCRPPRLPRPRPRPYSKPRP	-0.192
RRIRNRPPRLPRPRPRPVDYPRP	-0.0368

Sequence	shrunken log2 fold change
RRIRWRPPRLPRPRPRPCDLPRP	-0.286
RRIRSRPPRLPRPRPRPKIFPRP	-0.0746
RRIRQRPPRLPRPRPRPCPRPRP	-0.01
RRIRLRPPRLPRPRPRPLHFPRP	-0.197
RRIRHRPPRLPRPRPRPYQGPRP	-0.00674
RRIRCRPPRLPRPRPRPMTRPRP	-0.275
RRIRIRPPRLPRPRPRPEVVPRP	0.00224
RRIRNRPPRLPRPRPRPEYLPRP	0.0183
RRIRERPPRLPRPRPRPRASPRP	-0.0261
RRIRYRPPRLPRPRPRPQCQPRP	-0.00208
RRIRFRPPRLPRPRPRPSWGPRP	-0.243
RRIRNRPPRLPRPRPRPIPCPRP	-0.0228
RRIRSRPPRLPRPRPRPYETPRP	-0.181
RRIRWRPPRLPRPRPRPEWQPRP	0.0276
RRIRTRPPRLPRPRPRPSLHPRP	-0.604
RRIRYRPPRLPRPRPRPCECPRP	-0.0717
RRIRPRPPRLPRPRPRPLCFPRP	0.354
RRIRNRPPRLPRPRPRPRYIPRP	-0.455
RRIRFRPPRLPRPRPRPLSVPRP	-0.271
RRIRMRPPRLPRPRPRPISAPRP	0.0396
RRIRVRPPRLPRPRPRPINHPRP	-0.464
RRIRDRPPRLPRPRPRPAYNPRP	-0.764
RRIRTRPPRLPRPRPRPSFHPRP	-0.772
RRIRSRPPRLPRPRPRPVTCPRP	-0.299
RRIRTRPPRLPRPRPRPIINPRP	-0.0706
